Measured values: article PMC10720262 (2023)

B1: CL-512469 (antibody, V domains shown)
VH: QMQLVESGGGVVQPGRSLTLSCEASGFTFSNYGMHWVRQAPGKGLEWVAIIWFDGSHRFYADAVEGRFTISRDNSKNTLFLQMTSLRAEDAAVYYCARVGQFSSSSWGAFDIWGQGTVVTVSS
VL: EIVLTQSPGTLSLSPGESVTLSCRASQIISNTHLAWYQQKPGQAPSLLIYGASSRATGIPDRFSGSGSGTDFTLTISRLEPEDFAVYYCQQYGRLWTFGQGTKVEIK
modifications: peptides N-terminally acetylated and C-terminally amidated
B2: CL-437862 (antibody, V domains shown)
VH: QVQLVESGGGVVQPGRSLRLSCAASGFTFSNSGMHWVRQVPGKGLEWVAIIWYDGGNKYYADSVKGRFTISRDNSKNTLYLQMNSLRAEDTAVYYCARAYYDILTSYDKDCCYGMDVWGQGTTVTVSS
VL: not shown
modifications: peptides N-terminally acetylated and C-terminally amidated
B3: CL-510514 (antibody, V domains shown)
VH: QVQLVESGGGVVQPGRSLRLSCTTSGFTFSNFGMHWVRQAPGKGLEWVALIWYDGSNKYYADSVKGRFTISRDNSKNTLYLQMNGLRAEDTAVYYCARDGGYYYGSGGAFDIWGQGTMVTVSS
VL: not shown
modifications: peptides N-terminally acetylated and C-terminally amidated
B4: CL-510596 (antibody, V domains shown)
VH: QVQLEESGGGVVQPGRSLRLSCTATGFTFSNYGMHWVRQAPGKGLEWVAVIWYDGSNKYYVDSVKGRFTISRDNSKNTLYLQMNSLRAEDTAVYYCARDGGYYGSGSYWWFDSWGQGTLVTVSS
VL: not shown
modifications: peptides N-terminally acetylated and C-terminally amidated
B5: CL-510499 (antibody, V domains shown)
VH: QVQLVESGGGLVQPGRSLTLSCAASGFTFSNYGMHWVRQTPGKGLEWVALIRYDGSYKFYADSVKGRFTISRDNSKNTLYLQMNSLRAEDTAIYFCARDGDYSNSAGDFDYWGQGTLVTVSS
VL: EIVLTQSPGTLSLSPGERATLSCRASQSVSSTNLAWYQQKPGQAPRLLIYGVSSRATGIPDRFSGSGSGTDFTLTINRLEPEDFAVYYCQQHGRSFTFGPGTKVEIK
modifications: peptides N-terminally acetylated and C-terminally amidated
B6: CL-531237 (antibody, V domains shown)
VH: QVQLVESGGGVVQPGTSLRLSCVASGFTFSNFGIHWFRQAPGKGLEWVSLIWYDGKNKFYAESVTGRFTISRDNSKNTVYLQMSSLRAEDTAVYYCARSYYYDSGNYFDYWGQGTLVTVSS
VL: DIQMTQSPSSVSASVGDRITITCRASQGISSRLAWFQQKPGKAPNFLIYGTSSLQSGVPSRFSGSGSGTDFTLTISSLQPEDSATYYCQQANSYPWTFGQGTKVEIK
modifications: peptides N-terminally acetylated and C-terminally amidated
B7: CL-513041 (antibody, V domains shown)
VH: QEHLVESGGGVVQPGRSLRLSCAASGFTFSNSGMHWVRQAPGKGLEWVAVIWYDGSNKFYADSVRGRFTISRDNSNNTLYLQMNSLRAEDTALYYCARDRLFSGSWNWFDPWGQGTLVTVSS
VL: EIVLTQSPATLSLSPGERATLSCRASQSVSTYLAWYQQKPGQAPRLLIYDASNRATGIPARFSGSGSGTDFTLTISSLEPEDFAVYYCQQRSNWFTFGGGTKVEIK
modifications: peptides N-terminally acetylated and C-terminally amidated
B8: CL-510469 (antibody, V domains shown)
VH: QVQLVESGGGVVQPGRSLRLSCAASGFTFSSYGMHWVRQAPGKGLEWVAVIWYDGSNQFYTDSVKGRFTISRDNSKNTLYLHMNSLRVEDTAIYYCARDGDYSSSAGDFDYWGQGTLVTVSS
VL: not shown
modifications: peptides N-terminally acetylated and C-terminally amidated
B9: CL-513808 (antibody, V domains shown)
VH: QVQLVESGGGVVQPGRSLRLSCAASGFTFSNYGMHWVRQAPGKGLEWVAIIWYDGSNKFYADSVKGRFTISRDNSKNTLYLQMNSLRAEDTAVYYCARDDRGHSYGPYFDFWGQGTLVTVSS
VL: EIVMTQSPATLSVSPGERATLSCRASQSVSSNLAWYQQKPGQAPRLLIYGASIRATGIPARFSGSGSGTEFTLTISILQSEDFAVYYCQQCNNWPWTFGQGTKVEIK
modifications: peptides N-terminally acetylated and C-terminally amidated
B10: CL-509370 (antibody, V domains shown)
VH: QVQLVESGGGVVQPGRSLRLSCAASGFTFSSYGMHWVRQAPGKGLEWVAVIWYDGSNKFYADSVKGHFTISRDNSKNTLYLQMNSLRAEDTAVYYCARDGRDLRGTGPYFDPWGQGTLVTVSS
VL: EIVMTQSPATLSVSPGERAILSCRASQSVSSNLAWYQQKPGQAPRLLIYGASIRATGIPARFRGSGSGTEFTLTISILQSEDFAVYYCQQYNNWITFGQGTRLEIK
modifications: peptides N-terminally acetylated and C-terminally amidated
B11: CL-531325 (antibody, V domains shown)
VH: QVHLVESGGGVVQPGKSLRLSCAASGFTFSNFGMHWVRQAPGKGLEWVALIWYDGSHKFYADSVQGRFTISRDNSKNTLFLQMNSLRAEDTAIYYCAKVISYGSVNYYNNYKYTMDVWGQGTTVTVSS
VL: not shown
modifications: peptides N-terminally acetylated and C-terminally amidated
B12: CL-459404 (antibody, V domains shown)
VH: QVQLVASGGGVVQPGRSLRLSCAASGFTFSNYGMHWVRQAPGKGLEWVAIIWYDGSKKYYSDSVKGRFTISRDNSKNTLNLQMNSLRAEDTAVYYCARAYGSGSYSDDYYGMDVWGQGTTVTVSS
VL: DIQMTQSPSTLSASVGDRVTITCRASQSISPWLAWFQQKPGKAPKLLIYKASNLESGVPSRFSGSGSGTEFTLTISSLQPDDFATYYCQQYYTYWTFGQGTKVEIK
modifications: peptides N-terminally acetylated and C-terminally amidated
B13: CL-512761 (antibody, V domains shown)
VH: QVQLVESGGGVVQPGTSLRLSCAASGFTFSNYGMHWVRQAPGKGLEWVSITWYDESNKFYADSVKGRFTISRDNSKNTLYLQMNSLRAEDTAVYYCARAYDTLTGYRAQKYGMDVWGQGTTVTVSS
VL: DIQMTQSPSTLSASVGDRVTITCRASQRISTWLAWYQQKPGKAPKLLINEASRLESGVPSRFSGSGSGTEFTLTISSLQPDDFATYYCQQYNSYWTFGQGTKVEIK
modifications: peptides N-terminally acetylated and C-terminally amidated
B14: CL-531912 (antibody, V domains shown)
VH: LVQLVESGGGVVQPGRSLRLSCAASGFTFSSSGMHWVRQAPGKGLEWVAIIWYDGSNKFYADSVKGRFTISRDNSKNTLYLQMNSLRAEDTAVYYCARAYVSGSHGDKYGMDVWGQGTTVTVSS
VL: DIQMTQSPSTLSASVGDRVTITCRASQSISSWLAWFQQKPGKAPKLLIYKASSLESGVPSRFSGSGSGTEFTLTINSLQPDDFATYFCQQYNNYWTFGQGTKVEIK
modifications: peptides N-terminally acetylated and C-terminally amidated
B15: CL-532061 (antibody, V domains shown)
VH: QVQLVESGGGVVQPGRSLRLSCVASRFTFSNYGMHWVRQTPGKGLEWVAIIWYDGSNKFYGDSVKGRFTISRDNSRNTLYLQMNNLRAEDTAVYYCARAYDDFVDHDKYGMDVWGQGTTVTVSS
VL: DIQMTQSPSTLSASVGDRVTISCRASQSISIWLAWYQQKSGKAPKLLIYKASRLESGVPSRFSGSGSGTEFTLTISSLQPDDFATYYCQQYNSYWTFGQGTKVEIK
modifications: peptides N-terminally acetylated and C-terminally amidated
B16: CL-513462 (antibody, V domains shown)
VH: QVQLVESGGGVVQPGRSLRVSCAASGFTFSNYGMYWVRQAPGKGLEWVAVIWHDGTNKFYEDSVKGRFTISRDNSKNTLYLQMNSLRAEDTAVYYCARAGYFQGSGSFLDYWGQGTLVTVSS
VL: DIQMTQSPSTLSASVGDRVTITCRASQSISSWLAWYQQKPGKAPKLLIYKASSLESGVPSRFSGSGSGTEFTLTISSLQPDDFATYFCQQYSSYWTFGQGTKVEIK
modifications: peptides N-terminally acetylated and C-terminally amidated
B17: CL-510640 (antibody, V domains shown)
VH: QVQLVESGGGVVQPGRSLRLSCAASGFTFSNYGMHWVRQAPVKGLEWVAIIWYDGSNKFYADSVRGRFIISRDNSKNTLYLQMNSLRAEDTAVYFCARAREGQNSDYYGSETSYTFDSWGLGTLVTVSS
VL: DIQMTQSPSTLSASVGDRVTITCRASQSISSWLAWYQQKPGKAPKFLIYKASSLESGVPSRFSGSGSGTEFTLTISSLQPDDFATYYCQQYKSYWTFGQGTKVEIK
modifications: peptides N-terminally acetylated and C-terminally amidated

biological target: PfCSP full length (Plasmodium falciparum (isolate NF54), UniProt P19597); assay: ELISA AUC
Sequence (P19597 20-375): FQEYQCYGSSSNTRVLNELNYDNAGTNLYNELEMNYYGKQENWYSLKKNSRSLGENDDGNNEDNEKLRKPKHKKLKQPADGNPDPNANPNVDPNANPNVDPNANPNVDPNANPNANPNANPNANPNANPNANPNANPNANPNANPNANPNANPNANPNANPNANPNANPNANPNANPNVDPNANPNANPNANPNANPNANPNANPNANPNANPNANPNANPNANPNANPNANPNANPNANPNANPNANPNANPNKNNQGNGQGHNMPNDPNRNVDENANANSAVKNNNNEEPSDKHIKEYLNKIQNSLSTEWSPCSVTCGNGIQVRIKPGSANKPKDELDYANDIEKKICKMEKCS

Point of comparison: B1, binding score 1.99. Against it:
- B2 — higher, 2.4
- B3 — higher, 2.12
- B4 — lower, 1.64
- B5 — higher, 2.06
- B6 — higher, 2.18
- B7 — higher, 2.13
- B8 — higher, 2.16
- B9 — higher, 2.17
- B10 — higher, 2.09
- B11 — higher, 2.55
- B12 — higher, 2.4
- B13 — higher, 2.17
- B14 — higher, 2.64
- B15 — higher, 2.47
- B16 — higher, 2.47
- B17 — higher, 2.16
